Results on 5 sequences are retold here after the supplement of paper PMC5998384.

Data set [1] concerns HeLa Kyoto. The experiment in a line: solubility change mitosis vs G1/S (difference of NP-40 vs SDS log2 ratios) (log2 ratio difference); higher = more soluble in mitosis.
Data set [2] has as its system HeLa Kyoto. The experiment in a line: thermal stability score vs G1/S (z-score of summed log2 fold changes over temperatures); higher = more thermally stable than in G1/S.
The subject of data set [3] is HeLa Kyoto. The experiment in a line: solubility in G1/S (NP-40 vs SDS abundance) (log2 ratio); higher = more soluble. Conditions: cell cycle stage: G1/S.
Setting [4] is: cell cycle stage: early G1 (4.5 h after nocodazole release).
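For solubility change mitosis vs G1/S (difference of NP-40 vs SDS log2 ratios) in this document: synchronized HeLa Kyoto cells (double thymidine block for G1/S, nocodazole release for mitosis), protein amounts in NP-40 versus SDS lysates quantified by mass spectrometry, three biological replicates.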
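For solubility in G1/S (NP-40 vs SDS abundance) in this document: HeLa Kyoto cells arrested at G1/S by double thymidine block, proteins quantified by TMT10plex mass spectrometry in mild NP-40 versus SDS extracts, three biological replicates.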
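For thermal stability score vs G1/S (z-score of summed log2 fold changes over temperatures) in this document: synchronized HeLa Kyoto cells, proteins quantified by TMT10plex mass spectrometry, three biological replicates, mitosis taken 0.5 h after nocodazole release, G1/S directly after double thymidine block.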

As to “MLLPWATSAPGLAWGPLVLGLFGLLAASQPQAVPPYASENQTCRDQEKEYYEPQHRICCSRCPPGTYVSAKCSRIRDTVCATCAENSYNEHWNYLTICQLCRPCDPVMGLEEIAPCTSKRKTQCRCQPGMFCAAWALECTHCELLSDCPPGTEAELKDEVGKGNNHCVPCKAGHFQNTSSPSARCQPHTRCENQGLVEAAPGTAQSDTTCKNPLEPLPPEMSGTMLMLAVLLPLAFFLLLATVFSCIWKSHPSLCRKLGSLLKRRPQGEGPNPVAGSWEPPKAHPYFPDLVQPLLPISGDVSPVSTGLPAAPVLEAGVPQQQSPLDLTREPQLEPGEQSQVAHGTNGIHVTGGSMTITGNIYIYNGPVLGGPPGPGDLPATPEPPYPIPEEGDPGPPGLSTPHQEDGKAWHLAETEHCGATPSNRGPRNQFITHD [LTBR]”, the “solubility change mitosis (log2)” value in the data set with HeLa Kyoto [1] worked out at 0.703. For the same sequence, the thermal stability score is -2.45 with HeLa Kyoto [2] (setting [4]) and -1.87 in the data set with HeLa Kyoto [2] (cell cycle stage: mitosis). Besides, the “solubility in G1/S (log2)” value in the data set on HeLa Kyoto [3] was -0.758.
The matching figures for “MMPSRTNLATGIPSSKVKYSRLSSTDDGYIDLQFKKTPPKIPYKAIALATVLFLIGAFLIIIGSLLLSGYISKGGADRAVPVLIIGILVFLPGFYHLRIAYYASKGYRGYSYDDIPDFDD [TMEM230]”: -0.0463, -1.72, -2.3 and 0.0716.
The matching figures for “MNKGWLELESDPGLFTLLVEDFGVKGVQVEEIYDLQSKCQGPVYGFIFLFKWIEERRSRRKVSTLVDDTSVIDDDIVNNMFFAHQLIPNSCATHALLSVLLNCSSVDLGPTLSRMKDFTKGFSPESKGYAIGNAPELAKAHNSHARPEPRHLPEKQNGLSAVRTMEAFHFVSYVPITGRLFELDGLKVYPIDHGPWGEDEEWTDKARRVIMERIGLATAGEPYHDIRFNLMAVVPDRRIKYEARLHVLKVNRQTVLEALQQLIRVTQPELIQTHKSQESQLPEESKSASNKSPLVLEANRAPAASEGNHTDGAEEAAGSCAQAPSHSPPNKPKLVVKPPGSSLNGVHPNPTPIVQRLPAFLDNHNYAKSPMQEEEDLAAGVGRSRVPVRPPQQYSDDEDDYEDDEEDDVQNTNSALRYKGKGTGKPGALSGSADGQLSVLQPNTINVLAEKLKESQKDLSIPLSIKTSSGAGSPAVAVPTHSQPSPTPSNESTDTASEIGSAFNSPLRSPIRSANPTRPSSPVTSHISKVLFGEDDSLLRVDCIRYNRAVRDLGPVISTGLLHLAEDGVLSPLALTEGGKGSSPSIRPIQGSQGSSSPVEKEVVEATDSREKTGMVRPGEPLSGEKYSPKELLALLKCVEAEIANYEACLKEEVEKRKKFKIDDQRRTHNYDEFICTFISMLAQEGMLANLVEQNISVRRRQGVSIGRLHKQRKPDRRKRSRPYKAKRQ [BAP1]”: -0.138, 0.51, 0.853 and 0.152.
The matching figures for “MNNKFDALKDDDSGDHDQNEENSTQKDGEKEKTERDKNQSSSKRKAVVPGPAEHPLQYNYTFWYSRRTPGRPTSSQSYEQNIKQIGTFASVEQFWRFYSHMVRPGDLTGHSDFHLFKEGIKPMWEDDANKNGGKWIIRLRKGLASRCWENLILAMLGEQFMVGEEICGAVVSVRFQEDIISIWNKTASDQATTARIRDTLRRVLNLPPNTIMEYKTHTDSIKMPGRLGPQRLLFQNLWKPRLNVP [EIF4E2]”: 0.000807, -1.02, -0.941 and 0.114.
Turning to “MPSEGRCWETLKALRSSDKGRLCYYRDWLLRREDVLEECMSLPKLSSYSGWVVEHVLPHMQENQPLSETSPSSTSASALDQPSFVPKSPDASSAFSPASPATPNGTKGKDESQHTESMVLQSSRGIKVEGCVRMYELVHRMKGTEGLRLWQEEQERKVQALSEMASEQLKRFDEWKELKQHKEFQDLREVMEKSSREALGHQEKLKAEHRHRAKILNLKLREAEQQRVKQAEQERLRKEEGQIRLRALYALQEEMLQLSQQLDASEQHKALLKVDLAAFQTRGNQLCSLISGIIRASSESSYPTAESQAEAERALREMRDLLMNLGQEITRACEDKRRQDEEEAQVKLQEAQMQQGPEAHKEPPAPSQGPGGKQNEDLQVKVQDITMQWYQQLQDASMQCVLTFEGLTNSKDSQAKKIKMDLQKAATIPVSQISTIAGSKLKEIFDKIHSLLSGKPVQSGGRSVSVTLNPQGLDFVQYKLAEKFVKQGEEEVASHHEAAFPIAVVASGIWELHPRVGDLILAHLHKKCPYSVPFYPTFKEGMALEDYQRMLGYQVKDSKVEQQDNFLKRMSGMIRLYAAIIQLRWPYGNRQEIHPHGLNHGWRWLAQILNMEPLSDVTATLLFDFLEVCGNALMKQYQVQFWKMLILIKEDYFPRIEAITSSGQMGSFIRLKQFLEKCLQHKDIPVPKGFLTSSFWRS [GLE1]”, the “solubility change mitosis (log2)” value with HeLa Kyoto [1] came to 0.773. Moreover, the figures for the thermal stability score in the data set with HeLa Kyoto [2] (setting [4]) and with HeLa Kyoto [2] (cell cycle stage: mitosis) were 0.568 and 0.433, respectively. Besides, the “solubility in G1/S (log2)” value in the data set on HeLa Kyoto [3] is -0.966.
